Measured values as given in patent publication US20160279215A1, “NOVEL PEPTIDES AND COMBINATION OF PEPTIDES FOR USE IN IMMUNOTHERAPY AGAINST VARIOUS TUMORS” (immatics biotechnologies GmbH, priority 2015, published 2016).

What follows are substances tested against T1, HLA-A*02:01 (Homo sapiens, UniProt P04439, D140Y/D185E/D98H/E176V/E277Q/G131W/G231S/I119V/I121R/I166T/I218V/L300P/L318F/N151K/N90K/P208A/P217A/Q86G/Q94H/R138H/R169H/T345S) (assay: MHC binding assay: UV-ligand exchange with β2m ELISA (peptide exchange yield)). Conditions: binding to HLA-A*02:01 evaluated by peptide exchange yield (UV-ligand exchange, β2m ELISA).
T1 construct: made in house
Excerpt: Candidate peptides for T cell based therapies according to the present invention were further tested for their MHC binding capacity (affinity). The individual peptide-MHC complexes were produced by UV-ligand exchange, where a UV-sensitive peptide is cleaved upon UV-irradiation, and exchanged with the peptide of interest as analyzed. Only peptide candidates that can effectively bind and stabilize the peptide-receptive MHC molecules prevent dissociation of the MHC complexes. To determine the yield of the exchange reaction, an ELISA was performed based on the detection of the light chain (β2m) of stabilized MHC complexes. The assay was performed as generally described in Rodenko et al. (Rodenko et al., 2006).
96 well MAXISorp plates (NUNC) were coated over night with 2 ug/ml streptavidin in PBS at room temperature, washed 4× and blocked for 1 h at 37° C. in 2% BSA containing blocking buffer. Refolded HLA-A*02:01/MLA-001 monomers served as standards, covering the range of 15-500 ng/ml. Peptide-MHC monomers of the UV-exchange reaction were diluted 100 fold in blocking buffer. Samples were incubated for 1 h at 37° C., washed four times, incubated with 2 ug/ml HRP conjugated anti-β2m for 1 h at 37° C., washed again and detected with TMB solution that is stopped with […]. Absorption was measured at 450 nm. Candidate peptides that show a high exchange yield (preferably higher than 50%, most preferred higher than 75%) are generally preferred for a generation and production of antibodies or fragments thereof, and/or T cell receptors or fragments thereof, as they show sufficient avidity to the MHC molecules and prevent dissociation of the MHC complexes.
“174 (ALYSGDLHAA; listed as Homo sapiens) [compound 174]” was tested, and the Peptide exchange was “++ (≧20% = ++)”. For “175 (SLLDLVQSL; listed as Homo sapiens) [compound 175]”, the Peptide exchange was “+++ (≧50 = +++)”. “176 (VQSGLRILL; listed as Homo sapiens) [compound 176]” was tested, and the Peptide exchange was “++ (≧20% = ++)”. With “177 (ALINVLNAL; listed as Homo sapiens) [compound 177]” the Peptide exchange was “+++ (≧50 = +++)”. In the case of “178 (SLVSWQLLL; listed as Homo sapiens) [compound 178]”, the Peptide exchange is reported as “++++ (≧75% = ++++)”. With “179 (TLGEIIKGV; listed as Homo sapiens) [compound 179]” the Peptide exchange was “+++ (≧50 = +++)”. With “180 (RLYEEEIRI; listed as Homo sapiens) [compound 180]” the Peptide exchange was “+++ (≧50 = +++)”. In the case of “181 (LLWAPTAQA; listed as Homo sapiens) [compound 181]”, the Peptide exchange is reported as “+++ (≧50 = +++)”. In the case of “182 (GLQDGFQITV; listed as Homo sapiens) [compound 182]”, the Peptide exchange is reported as “+++ (≧50 = +++)”. With “183 (ALSYILPYL; listed as Homo sapiens) [compound 183]” the Peptide exchange was “+++ (≧50 = +++)”. In the case of “184 (ALDSTIAHL; listed as Homo sapiens) [compound 184]”, the Peptide exchange is reported as “++ (≧20% = ++)”. “185 (TLYQGLPAEV; listed as Homo sapiens) [compound 185]” was tested, and the Peptide exchange was “++ (≧20% = ++)”. For “187 (SILKEDPFL; listed as Homo sapiens) [compound 187]”, the Peptide exchange was “++ (≧20% = ++)”. “188 (VLGEEQEGV; listed as Homo sapiens) [compound 188]” was tested, and the Peptide exchange was “++ (≧20% = ++)”. In the case of “190 (SLSTELFKV; listed as Homo sapiens) [compound 190]”, the Peptide exchange is reported as “+++ (≧50 = +++)”. For “191 (AAIEIFEKV; listed as Homo sapiens) [compound 191]”, the Peptide exchange was “+++ (≧50 = +++)”. In the case of “192 (TLLPSSGLVTL; listed as Homo sapiens) [compound 192]”, the Peptide exchange is reported as “++ (≧20% = ++)”. In the case of “193 (ALFHMNILL; listed as Homo sapiens) [compound 193]”, the Peptide exchange is reported as “+++ (≧50 = +++)”. “194 (KLLEEVQLL; listed as Homo sapiens) [compound 194]” was tested, and the Peptide exchange was “++ (≧20% = ++)”. For “195 (VIIQNLPAL; listed as Homo sapiens) [compound 195]”, the Peptide exchange was “+++ (≧50 = +++)”. For “198 (ILTNKVVSV; listed as Homo sapiens) [compound 198]”, the Peptide exchange was “++ (≧20% = ++)”. With “199 (SVADLAHVL; listed as Homo sapiens) [compound 199]” the Peptide exchange was “++ (≧20% = ++)”. For “200 (IMPTFDLTKV; listed as Homo sapiens) [compound 200]”, the Peptide exchange was “+++ (≧50 = +++)”. For “203 (FLFVDPELV; listed as Homo sapiens) [compound 203]”, the Peptide exchange was “++ (≧20% = ++)”. “204 (SEWGSPHAAVP; listed as Homo sapiens) [compound 204]” was tested, and the Peptide exchange was “+++ (≧50 = +++)”. “206 (GLDAFRIFL; listed as Homo sapiens) [compound 206]” was tested, and the Peptide exchange was “++++ (≧75% = ++++)”. “207 (KLFETVEEL; listed as Homo sapiens) [compound 207]” was tested, and the Peptide exchange was “+++ (≧50 = +++)”. “208 (HLNNDRNPL; listed as Homo sapiens) [compound 208]” was tested, and the Peptide exchange was “++ (≧20% = ++)”. “210 (GLAGDNIYL; listed as Homo sapiens) [compound 210]” was tested, and the Peptide exchange was “+++ (≧50 = +++)”. “211 (LLTTVLINA; listed as Homo sapiens) [compound 211]” was tested, and the Peptide exchange was “+++ (≧50 = +++)”. With “212 (MTLSEIHAV; listed as Homo sapiens) [compound 212]” the Peptide exchange was “++ (≧20% = ++)”. “213 (ILAVDGVLSV; listed as Homo sapiens) [compound 213]” was tested, and the Peptide exchange was “+++ (≧50 = +++)”. With “214 (ALFETLIQL; listed as Homo sapiens) [compound 214]” the Peptide exchange was “+++ (≧50 = +++)”. For “215 (QIADIVTSV; listed as Homo sapiens) [compound 215]”, the Peptide exchange was “++ (≧20% = ++)”. For “216 (ALSTVTPRI; listed as Homo sapiens) [compound 216]”, the Peptide exchange was “++ (≧20% = ++)”. For “217 (LLWPSSVPA; listed as Homo sapiens) [compound 217]”, the Peptide exchange was “+++ (≧50 = +++)”. In the case of “218 (SLTGANITV; listed as Homo sapiens) [compound 218]”, the Peptide exchange is reported as “+++ (≧50 = +++)”. “219 (GVVPTIQKV; listed as Homo sapiens) [compound 219]” was tested, and the Peptide exchange was “++ (≧20% = ++)”. In the case of “220 (ALSELERVL; listed as Homo sapiens) [compound 220]”, the Peptide exchange is reported as “+++ (≧50 = +++)”. For “221 (IMLNSVEEI; listed as Homo sapiens) [compound 221]”, the Peptide exchange was “++ (≧20% = ++)”. “222 (LLTGVFAQL; listed as Homo sapiens) [compound 222]” was tested, and the Peptide exchange was “++ (≧20% = ++)”. For “223 (ALHPVQFYL; listed as Homo sapiens) [compound 223]”, the Peptide exchange was “+++ (≧50 = +++)”. For “224 (LLFDWSGTGRADA; listed as Homo sapiens) [compound 224]”, the Peptide exchange was “+++ (≧50 = +++)”. With “225 (FLPQPVPLSV; listed as Homo sapiens) [compound 225]” the Peptide exchange was “+++ (≧50 = +++)”. For “226 (SLAGNLQEL; listed as Homo sapiens) [compound 226]”, the Peptide exchange was “+++ (≧50 = +++)”. For “227 (SEMEELPSV; listed as Homo sapiens) [compound 227]”, the Peptide exchange was “+ (≧10% = +)”. With “228 (SLLELDGINLRL; listed as Homo sapiens) [compound 228]” the Peptide exchange was “+++ (≧50 = +++)”. With “229 (YLYELEHAL; listed as Homo sapiens) [compound 229]” the Peptide exchange was “++ (≧20% = ++)”. “230 (KLLNMIFSI; listed as Homo sapiens) [compound 230]” was tested, and the Peptide exchange was “+++ (≧50 = +++)”. “231 (LLDDIFIRL; listed as Homo sapiens) [compound 231]” was tested, and the Peptide exchange was “+++ (≧50 = +++)”. “235 (SLLNQPKAV; listed as Homo sapiens) [compound 235]” was tested, and the Peptide exchange was “++ (≧20% = ++)”. In the case of “237 (ALLEQTGDMSL; listed as Homo sapiens) [compound 237]”, the Peptide exchange is reported as “+++ (≧50 = +++)”. In the case of “238 (HLQEKLQSL; listed as Homo sapiens) [compound 238]”, the Peptide exchange is reported as “++ (≧20% = ++)”. For “239 (VIIKGLEEITV; listed as Homo sapiens) [compound 239]”, the Peptide exchange was “+++ (≧50 = +++)”. For “241 (KQFEGTVEI; listed as Homo sapiens) [compound 241]”, the Peptide exchange was “+++ (≧50 = +++)”. In the case of “243 (GLAEFQENV; listed as Homo sapiens) [compound 243]”, the Peptide exchange is reported as “++ (≧20% = ++)”. With “244 (NVAEIVIHI; listed as Homo sapiens) [compound 244]” the Peptide exchange was “+++ (≧50 = +++)”. For “245 (ALLEEEEGV; listed as Homo sapiens) [compound 245]”, the Peptide exchange was “++ (≧20% = ++)”. For “247 (NLLIDDKGTIKL; listed as Homo sapiens) [compound 247]”, the Peptide exchange was “++ (≧20% = ++)”. “249 (YLYQILQGI; listed as Homo sapiens) [compound 249]” was tested, and the Peptide exchange was “+++ (≧50 = +++)”. In the case of “250 (LMQDSRLYL; listed as Homo sapiens) [compound 250]”, the Peptide exchange is reported as “+++ (≧50 = +++)”. “252 (SLMEKNQSL; listed as Homo sapiens) [compound 252]” was tested, and the Peptide exchange was “++ (≧20% = ++)”. “256 (FLNDIFERI; listed as Homo sapiens) [compound 256]” was tested, and the Peptide exchange was “+++ (≧50 = +++)”. “258 (QLVQRVASV; listed as Homo sapiens) [compound 258]” was tested, and the Peptide exchange was “++ (≧20% = ++)”. In the case of “259 (GPGIFPPPPPQP; listed as Homo sapiens) [compound 259]”, the Peptide exchange is reported as “+ (≧10% = +)”. “262 (LLLEAVWHL; listed as Homo sapiens) [compound 262]” was tested, and the Peptide exchange was “+++ (≧50 = +++)”. For “265 (FLLDKPQDLSI; listed as Homo sapiens) [compound 265]”, the Peptide exchange was “+++ (≧50 = +++)”. In the case of “266 (FLLDKPQDL; listed as Homo sapiens) [compound 266]”, the Peptide exchange is reported as “++ (≧20% = ++)”. In the case of “268 (SLDKDIVAL; listed as Homo sapiens) [compound 268]”, the Peptide exchange is reported as “++ (≧20% = ++)”. For “269 (GLLDCPIFL; listed as Homo sapiens) [compound 269]”, the Peptide exchange was “++++ (≧75% = ++++)”. “270 (TLLTFFHEL; listed as Homo sapiens) [compound 270]” was tested, and the Peptide exchange was “+++ (≧50 = +++)”. “271 (VLIEYNFSI; listed as Homo sapiens) [compound 271]” was tested, and the Peptide exchange was “+++ (≧50 = +++)”.
